± gives the uncertainty stated by the source.

The series is described as follows: protein stability index of a GFP-peptide fusion (yeast GPS) (PSI 1-4); higher = more stable; sorted into four equal gates, so the index is relative within each strain. An outline of the steps: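 Plasmids in a pooled yeast library fused tiled 17-residue yeast protein peptides downstream of GFP and also expressed Cherry. Mid-log cultures grown without leucine were sorted into four equal gates by GFP/Cherry fluorescence ratio. Each gate's plasmids were PCR-amplified and Illumina-sequenced, and reads were matched to strains by barcodes. The protein stability index is derived by multiplying each gate's read frequency by its gate number and summing the results.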

The sequence IQRGRILPTDGSAEFNV [RPB7] gave a protein stability index (doa10∆) of 2.8 ± 0.14, a protein stability index (pdr5∆) of 3.05 ± 0.086, a protein stability index (san1∆) of 3.03 ± 0.081 and a protein stability index (ubr1∆) of 2.79 ± 0.075.

On to IQRLRLLREKQRVRNMR [YOR098C/NUP1], for which the protein stability index was 1.28 ± 0.086 (pdr5∆) and 1.41 ± 0.26 (ubr1∆).

As to IRAIRKVISEILTREVQ [RPS1B], the protein stability index reads like this: (doa10∆) 1.92 ± 0.07; (pdr5∆) 1.65 ± 0.05; (san1∆) 1.25 ± 0.08; (ubr1∆) 1.67 ± 0.14.

With IRGIVKQIVHDSGRGAP [RPL2A], the protein stability index reads like this: (doa10∆) 1.76 ± 0.07; (pdr5∆) 1.88 ± 0.065; (san1∆) 2.79 ± 0.047; (ubr1∆) 2.12 ± 0.07.

Turning to IRLAKTLKKNNVAVDII [RPN10], the protein stability index (doa10∆) is 2.73 ± 0.085, the protein stability index (pdr5∆) turned out to be 2.85 ± 0.095, the protein stability index (san1∆) is 2.92 ± 0.12 and the protein stability index (ubr1∆) worked out at 2.56 ± 0.075.

Consider IRPDGRLPHQFRPIEIF [RRP42], for which the protein stability index worked out at 1.84 ± 0.087 (doa10∆), 1.94 ± 0.084 (pdr5∆), 1.35 ± 0.12 (san1∆) and 2.16 ± 0.073 (ubr1∆).

Consider IRRAYLHYIPKYNRYEK [RPS11A], for which the protein stability index by setting is: (doa10∆) 2.04 ± 0.07; (pdr5∆) 1.72 ± 0.064; (san1∆) 1.81 ± 0.1; (ubr1∆) 1.85 ± 0.044.

Regarding ISEEETTVKPLFQNVPE [YAR002W/NUP60], the protein stability index worked out at 3.01 ± 0.069 (doa10∆), 3.25 ± 0.068 (pdr5∆), 3.23 ± 0.043 (san1∆) and 3.01 ± 0.058 (ubr1∆).

With ISEFDSFTDILKSAIRD [RPN12], the protein stability index came out at 2.73 ± 0.12 (doa10∆), 3.15 ± 0.17 (pdr5∆), 3.04 ± 0.11 (san1∆) and 2.42 ± 0.13 (ubr1∆).

Regarding ISFVLGVRSNHLRSNIL [SMC1], the protein stability index stood at 2.09 ± 0.061 (doa10∆), 2.16 ± 0.088 (pdr5∆), 2.08 ± 0.097 (san1∆) and 2.47 ± 0.064 (ubr1∆).

Regarding ISGDISDMQHIERLLKD [PRE4], the protein stability index turned out to be 2.99 ± 0.14 (doa10∆), 3.1 ± 0.11 (pdr5∆), 3.13 ± 0.14 (san1∆) and 2.99 ± 0.1 (ubr1∆).

As to ISKKLQFSYLSSTLGID [PCI8], the protein stability index reads like this: (doa10∆) 2.08 ± 0.055; (pdr5∆) 1.67 ± 0.054; (san1∆) 1.49 ± 0.097; (ubr1∆) 1.63 ± 0.044.

For the sequence ISKNPSNGIFYGPSFTK [SIR2], the protein stability index (doa10∆) is 2.94 ± 0.071, the protein stability index (pdr5∆) worked out at 3.03 ± 0.054, the protein stability index (san1∆) is 2.76 ± 0.059 and the protein stability index (ubr1∆) was 3.15 ± 0.039.

For ISLLALPHSPLWELALA [YML031W/NDC1], the protein stability index was found to be 1.35 ± 0.086 (doa10∆), 1.49 ± 0.061 (pdr5∆), 1.34 ± 0.11 (san1∆) and 1.7 ± 0.042 (ubr1∆).

ISNGNLATGPNLTSEIE [YOR098C/NUP1]: the protein stability index was 3.4 ± 0.096 (doa10∆), 3.39 ± 0.11 (pdr5∆), 3.17 ± 0.06 (san1∆) and 3.41 ± 0.091 (ubr1∆).

In the case of ISQPKSMSGRISAKDMG [BRR2], the protein stability index (doa10∆) is 3.1 ± 0.06, the protein stability index (pdr5∆) is 3.16 ± 0.055, the protein stability index (san1∆) came out at 3.08 ± 0.058 and the protein stability index (ubr1∆) worked out at 3.15 ± 0.046.

As to ISQSQLGKFKNIIASPL [SIN4], the protein stability index is, setting by setting: (doa10∆) 1.73 ± 0.067; (pdr5∆) 1.96 ± 0.049; (san1∆) 2.01 ± 0.088; (ubr1∆) 2.08 ± 0.057.

As for ISSHSHPVSLISFAIYS [RRP42], the protein stability index runs as follows: (doa10∆) 1.51 ± 0.052; (pdr5∆) 1.62 ± 0.058; (san1∆) 1.86 ± 0.075; (ubr1∆) 1.54 ± 0.033.

For ISTHLKTICNLLISDTE [IRR1], the protein stability index (doa10∆) came out at 1.64 ± 0.05, the protein stability index (pdr5∆) amounted to 1.86 ± 0.059, the protein stability index (san1∆) worked out at 1.88 ± 0.088 and the protein stability index (ubr1∆) was determined as 1.5 ± 0.032.

Consider ISTVIEVNREEAIGFIR [SMC3], for which the protein stability index reads like this: (doa10∆) 2.93 ± 0.21; (pdr5∆) 2.65 ± 0.11; (san1∆) 2.86 ± 0.16; (ubr1∆) 2.57 ± 0.088.

With ITAVHVKIRATGGTRTK [RPS14A], the protein stability index stood at 1.58 ± 0.05 (doa10∆), 1.63 ± 0.041 (pdr5∆), 1.82 ± 0.09 (san1∆) and 1.67 ± 0.042 (ubr1∆).

Take ITGEKLDTQLNDLRVSL [SMC1]: the protein stability index (doa10∆) was 1.3 ± 0.068, the protein stability index (pdr5∆) came out at 2 ± 0.076, the protein stability index (san1∆) was determined as 1.58 ± 0.18 and the protein stability index (ubr1∆) was 1.16 ± 0.032.

With ITHKLTKNDAGSKQILK [BRR2], the protein stability index by setting is: (doa10∆) 3.07 ± 0.071; (pdr5∆) 3.43 ± 0.079; (san1∆) 3.21 ± 0.036; (ubr1∆) 3.23 ± 0.055.

Regarding ITIQDLLFPKSTIVNLA [DPB4], the protein stability index (doa10∆) turned out to be 2.45 ± 0.066, the protein stability index (pdr5∆) is 2.71 ± 0.11, the protein stability index (san1∆) was 2.51 ± 0.069 and the protein stability index (ubr1∆) was 2.59 ± 0.083.

Turning to ITISIHGKPTKGSSLAS [SSN8], the protein stability index is 2.24 ± 0.17 (doa10∆), 2.39 ± 0.086 (pdr5∆), 2.43 ± 0.079 (san1∆) and 2.58 ± 0.041 (ubr1∆).

ITKVPALEFLNTTLQDN [REC8]: the protein stability index is, setting by setting: (doa10∆) 2.77 ± 0.08; (pdr5∆) 2.7 ± 0.15; (san1∆) 2.98 ± 0.12; (ubr1∆) 2.71 ± 0.084.
